# Reference: paper doi:10.1101/871707 (bioRxiv, 2019)
# B1: human SEMA6A soluble recombinant extracellular domain (receptor)
# chain: GFPEDSEPISISHGNYTKQYPVFVGHKPGRNTTQRHRLDIQMIMIMNGTLYIAARDHIYTVDIDTSHTEEIYCSKKLTWKSRQADVDTCRMKGKHKDECHNFIKVLLKKNDDALFVCGTNAFNPSCRNYKMDTLEPFGDEFSGMARCPYDAKHANVALFADGKLYSATVTDFLAIDAVIYRSLGESPTLRTVKHDSKWLKEPYFVQAVDYGDYIYFFFREIAVEYNTMGKVVFPRVAQVCKNDMGGSQRVLEKQWTSFLKARLNCSVPGDSHFYFNILQAVTDVIRINGRDVVLATFSTPYNSIPGSAVCAYDMLDIASVFTGRFKEQKSPDSTWTPVPDERVPKPRPGCCAGSSSLERYATSNEFPDDTLNFIKTHPLMDEAVPSIFNRPWFLRTMVRYRLTKIAVDTAAGPYQNHTVVFLGSEKGIILKFLARIGNSGFLNDSLFLEEMSVYNSEKCSYDGVEDKRIMGMQLDRASSSLYVAFSTCVIKVPLGRCERHGKCKKTCIASRDPYCGWIKEGGACSHLSPNSRLTFEQDIERGNTDGLGDCHNSFVALNGHSSSLLPSTTTSDSTAQEGYESRGGMLDWKHLLDSPDSTDPLGAVSSHNHQDKKGVIRESYLKGHDQLVPVT
# notes: also called SEMA6A rECD; recombinant SEMA6A ectodomain
# Biological target: the molecule itself
# Test: cryo-EM structure
protein,measurement,value
B1,stoichiometry N,2
